To fix the notation:
T1: recombinant Factor VIII (CSL627, rVIII-SingleChain) (Homo sapiens (Human), UniProt P00451 20-2351)
T1 construct: also called FVIII
T1 sequence: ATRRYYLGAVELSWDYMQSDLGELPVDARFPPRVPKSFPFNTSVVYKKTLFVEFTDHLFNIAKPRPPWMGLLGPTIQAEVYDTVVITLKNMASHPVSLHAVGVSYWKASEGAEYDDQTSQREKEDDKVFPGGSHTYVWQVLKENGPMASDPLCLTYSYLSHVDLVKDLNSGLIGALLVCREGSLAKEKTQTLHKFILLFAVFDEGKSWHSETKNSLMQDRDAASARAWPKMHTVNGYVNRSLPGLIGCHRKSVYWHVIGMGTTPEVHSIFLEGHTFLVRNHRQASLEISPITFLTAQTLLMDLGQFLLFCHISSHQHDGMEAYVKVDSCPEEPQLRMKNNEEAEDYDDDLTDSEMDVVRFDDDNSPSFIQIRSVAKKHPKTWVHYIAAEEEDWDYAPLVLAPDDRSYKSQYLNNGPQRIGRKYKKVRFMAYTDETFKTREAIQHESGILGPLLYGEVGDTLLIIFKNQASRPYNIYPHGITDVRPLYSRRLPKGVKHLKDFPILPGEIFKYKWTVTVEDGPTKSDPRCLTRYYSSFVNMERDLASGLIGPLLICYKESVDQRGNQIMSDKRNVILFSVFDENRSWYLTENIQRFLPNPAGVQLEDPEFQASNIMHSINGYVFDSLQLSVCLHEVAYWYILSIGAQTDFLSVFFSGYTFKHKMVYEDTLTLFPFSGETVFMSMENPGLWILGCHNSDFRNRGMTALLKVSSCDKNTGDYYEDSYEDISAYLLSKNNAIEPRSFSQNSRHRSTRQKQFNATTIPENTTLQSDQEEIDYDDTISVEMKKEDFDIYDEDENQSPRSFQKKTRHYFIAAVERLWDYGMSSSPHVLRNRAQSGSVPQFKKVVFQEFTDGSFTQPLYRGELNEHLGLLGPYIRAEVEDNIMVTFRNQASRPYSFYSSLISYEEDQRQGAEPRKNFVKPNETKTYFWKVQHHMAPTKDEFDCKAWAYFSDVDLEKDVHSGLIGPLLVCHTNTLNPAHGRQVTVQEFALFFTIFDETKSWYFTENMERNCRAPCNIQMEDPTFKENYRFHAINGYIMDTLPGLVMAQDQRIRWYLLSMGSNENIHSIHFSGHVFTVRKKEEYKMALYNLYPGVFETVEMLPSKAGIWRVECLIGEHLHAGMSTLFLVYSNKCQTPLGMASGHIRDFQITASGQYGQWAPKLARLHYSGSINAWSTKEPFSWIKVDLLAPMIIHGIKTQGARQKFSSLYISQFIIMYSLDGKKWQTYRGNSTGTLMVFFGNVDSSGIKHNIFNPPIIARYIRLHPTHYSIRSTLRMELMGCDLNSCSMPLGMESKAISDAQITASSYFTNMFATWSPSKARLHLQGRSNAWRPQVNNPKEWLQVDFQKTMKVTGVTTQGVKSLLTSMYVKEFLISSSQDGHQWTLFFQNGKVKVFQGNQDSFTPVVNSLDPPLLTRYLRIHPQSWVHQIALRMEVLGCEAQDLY

B1: Hu-vWF[764-1270]-8His S766Y-P769E (other)
chain: SLYCREPMVKLVCPADNLRAEGLECTKTCQNYDLECMSMGCVSGCLCPPGMVRHENRCVALERCPCFHQGKEYAPGETVKIGCNTCVCRDRKWNCTDHVCDATCSTIGMAHYLTFDGLKYLFPGECQYVLVQDYCGSNPGTFRILVGNKGCSHPSVKCKKRVTILVEGGEIELFDGEVNVKRPMKDETHFEVVESGRYIILLLGKALSVVWDRHLSISVVLKQTYQEKVCGLCGNFDGIQNNDLTSSNLQVEEDPVDFGNSWKVSSQCADTRKVPLDSSPATCHNNIMKQTMVDSSCRILTSDVFQDCNKLVDPEPYLDVCIYDTCSCESIGDCACFCDTIAAYAHVCAQHGKVVTWRTATLCPQSCEERNLRENGYECEWRYNSCAPACQVTCQHPEPLACPVQCVEGCHAHCPPGKILDELLQTCVDPEDCPVCEVAGRRFASGKKVTLNPSDPEHCQICHCDVVNLTCEACQEPGGLVVPPTDAPVSPTTLYVEDISEPPLHDFHHHHHHHH
B2: Hu-vWF[764-1270]-8His S766Y-P769H (other)
chain: SLYCRHPMVKLVCPADNLRAEGLECTKTCQNYDLECMSMGCVSGCLCPPGMVRHENRCVALERCPCFHQGKEYAPGETVKIGCNTCVCRDRKWNCTDHVCDATCSTIGMAHYLTFDGLKYLFPGECQYVLVQDYCGSNPGTFRILVGNKGCSHPSVKCKKRVTILVEGGEIELFDGEVNVKRPMKDETHFEVVESGRYIILLLGKALSVVWDRHLSISVVLKQTYQEKVCGLCGNFDGIQNNDLTSSNLQVEEDPVDFGNSWKVSSQCADTRKVPLDSSPATCHNNIMKQTMVDSSCRILTSDVFQDCNKLVDPEPYLDVCIYDTCSCESIGDCACFCDTIAAYAHVCAQHGKVVTWRTATLCPQSCEERNLRENGYECEWRYNSCAPACQVTCQHPEPLACPVQCVEGCHAHCPPGKILDELLQTCVDPEDCPVCEVAGRRFASGKKVTLNPSDPEHCQICHCDVVNLTCEACQEPGGLVVPPTDAPVSPTTLYVEDISEPPLHDFHHHHHHHH
B3: Hu-vWF[764-1270]-8His S766Y-P769K (other)
chain: SLYCRKPMVKLVCPADNLRAEGLECTKTCQNYDLECMSMGCVSGCLCPPGMVRHENRCVALERCPCFHQGKEYAPGETVKIGCNTCVCRDRKWNCTDHVCDATCSTIGMAHYLTFDGLKYLFPGECQYVLVQDYCGSNPGTFRILVGNKGCSHPSVKCKKRVTILVEGGEIELFDGEVNVKRPMKDETHFEVVESGRYIILLLGKALSVVWDRHLSISVVLKQTYQEKVCGLCGNFDGIQNNDLTSSNLQVEEDPVDFGNSWKVSSQCADTRKVPLDSSPATCHNNIMKQTMVDSSCRILTSDVFQDCNKLVDPEPYLDVCIYDTCSCESIGDCACFCDTIAAYAHVCAQHGKVVTWRTATLCPQSCEERNLRENGYECEWRYNSCAPACQVTCQHPEPLACPVQCVEGCHAHCPPGKILDELLQTCVDPEDCPVCEVAGRRFASGKKVTLNPSDPEHCQICHCDVVNLTCEACQEPGGLVVPPTDAPVSPTTLYVEDISEPPLHDFHHHHHHHH
B4: Hu-vWF[764-1270]-8His S766Y-P769I (other)
chain: SLYCRIPMVKLVCPADNLRAEGLECTKTCQNYDLECMSMGCVSGCLCPPGMVRHENRCVALERCPCFHQGKEYAPGETVKIGCNTCVCRDRKWNCTDHVCDATCSTIGMAHYLTFDGLKYLFPGECQYVLVQDYCGSNPGTFRILVGNKGCSHPSVKCKKRVTILVEGGEIELFDGEVNVKRPMKDETHFEVVESGRYIILLLGKALSVVWDRHLSISVVLKQTYQEKVCGLCGNFDGIQNNDLTSSNLQVEEDPVDFGNSWKVSSQCADTRKVPLDSSPATCHNNIMKQTMVDSSCRILTSDVFQDCNKLVDPEPYLDVCIYDTCSCESIGDCACFCDTIAAYAHVCAQHGKVVTWRTATLCPQSCEERNLRENGYECEWRYNSCAPACQVTCQHPEPLACPVQCVEGCHAHCPPGKILDELLQTCVDPEDCPVCEVAGRRFASGKKVTLNPSDPEHCQICHCDVVNLTCEACQEPGGLVVPPTDAPVSPTTLYVEDISEPPLHDFHHHHHHHH
B5: Hu-vWF[764-1270]-8His S766Y-P769M (other)
chain: SLYCRMPMVKLVCPADNLRAEGLECTKTCQNYDLECMSMGCVSGCLCPPGMVRHENRCVALERCPCFHQGKEYAPGETVKIGCNTCVCRDRKWNCTDHVCDATCSTIGMAHYLTFDGLKYLFPGECQYVLVQDYCGSNPGTFRILVGNKGCSHPSVKCKKRVTILVEGGEIELFDGEVNVKRPMKDETHFEVVESGRYIILLLGKALSVVWDRHLSISVVLKQTYQEKVCGLCGNFDGIQNNDLTSSNLQVEEDPVDFGNSWKVSSQCADTRKVPLDSSPATCHNNIMKQTMVDSSCRILTSDVFQDCNKLVDPEPYLDVCIYDTCSCESIGDCACFCDTIAAYAHVCAQHGKVVTWRTATLCPQSCEERNLRENGYECEWRYNSCAPACQVTCQHPEPLACPVQCVEGCHAHCPPGKILDELLQTCVDPEDCPVCEVAGRRFASGKKVTLNPSDPEHCQICHCDVVNLTCEACQEPGGLVVPPTDAPVSPTTLYVEDISEPPLHDFHHHHHHHH
B6: Hu-vWF[764-1270]-8His S766Y-P769F (other)
chain: SLYCRFPMVKLVCPADNLRAEGLECTKTCQNYDLECMSMGCVSGCLCPPGMVRHENRCVALERCPCFHQGKEYAPGETVKIGCNTCVCRDRKWNCTDHVCDATCSTIGMAHYLTFDGLKYLFPGECQYVLVQDYCGSNPGTFRILVGNKGCSHPSVKCKKRVTILVEGGEIELFDGEVNVKRPMKDETHFEVVESGRYIILLLGKALSVVWDRHLSISVVLKQTYQEKVCGLCGNFDGIQNNDLTSSNLQVEEDPVDFGNSWKVSSQCADTRKVPLDSSPATCHNNIMKQTMVDSSCRILTSDVFQDCNKLVDPEPYLDVCIYDTCSCESIGDCACFCDTIAAYAHVCAQHGKVVTWRTATLCPQSCEERNLRENGYECEWRYNSCAPACQVTCQHPEPLACPVQCVEGCHAHCPPGKILDELLQTCVDPEDCPVCEVAGRRFASGKKVTLNPSDPEHCQICHCDVVNLTCEACQEPGGLVVPPTDAPVSPTTLYVEDISEPPLHDFHHHHHHHH
B7: Hu-vWF[764-1270]-8His S766Y-P769G (other)
chain: SLYCRGPMVKLVCPADNLRAEGLECTKTCQNYDLECMSMGCVSGCLCPPGMVRHENRCVALERCPCFHQGKEYAPGETVKIGCNTCVCRDRKWNCTDHVCDATCSTIGMAHYLTFDGLKYLFPGECQYVLVQDYCGSNPGTFRILVGNKGCSHPSVKCKKRVTILVEGGEIELFDGEVNVKRPMKDETHFEVVESGRYIILLLGKALSVVWDRHLSISVVLKQTYQEKVCGLCGNFDGIQNNDLTSSNLQVEEDPVDFGNSWKVSSQCADTRKVPLDSSPATCHNNIMKQTMVDSSCRILTSDVFQDCNKLVDPEPYLDVCIYDTCSCESIGDCACFCDTIAAYAHVCAQHGKVVTWRTATLCPQSCEERNLRENGYECEWRYNSCAPACQVTCQHPEPLACPVQCVEGCHAHCPPGKILDELLQTCVDPEDCPVCEVAGRRFASGKKVTLNPSDPEHCQICHCDVVNLTCEACQEPGGLVVPPTDAPVSPTTLYVEDISEPPLHDFHHHHHHHH
B8: Hu-vWF[764-1270]-8His S766Y-P769L (other)
chain: SLYCRLPMVKLVCPADNLRAEGLECTKTCQNYDLECMSMGCVSGCLCPPGMVRHENRCVALERCPCFHQGKEYAPGETVKIGCNTCVCRDRKWNCTDHVCDATCSTIGMAHYLTFDGLKYLFPGECQYVLVQDYCGSNPGTFRILVGNKGCSHPSVKCKKRVTILVEGGEIELFDGEVNVKRPMKDETHFEVVESGRYIILLLGKALSVVWDRHLSISVVLKQTYQEKVCGLCGNFDGIQNNDLTSSNLQVEEDPVDFGNSWKVSSQCADTRKVPLDSSPATCHNNIMKQTMVDSSCRILTSDVFQDCNKLVDPEPYLDVCIYDTCSCESIGDCACFCDTIAAYAHVCAQHGKVVTWRTATLCPQSCEERNLRENGYECEWRYNSCAPACQVTCQHPEPLACPVQCVEGCHAHCPPGKILDELLQTCVDPEDCPVCEVAGRRFASGKKVTLNPSDPEHCQICHCDVVNLTCEACQEPGGLVVPPTDAPVSPTTLYVEDISEPPLHDFHHHHHHHH

This assay deals with T1, recombinant Factor VIII (CSL627, …). Kind of assay: SPR, anti-His capture, FVIII injected, 37 C. The essentials: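 Capture 40-150 RU mutant from medium on anti-His (14,000 RU) CM-5; 1 nM FVIII, 5 min on / 5 min off; reference spot + blank subtracted; 1:1 fit.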
Background: Surface plasmon resonance follows binding to a sensor surface in real time, without labels.
The Kd is the constant that tells how readily two partners part at equilibrium. What is called koff is the first-order rate constant of dissociation. The kon is a measure of how fast the partners come together. For the molecule B1, the Kd turned out to be 0.0936 nM, the koff was 0.000414 s⁻¹ and the kon came out at 4.42e+06 M⁻¹ s⁻¹.

In the case of B2, the dissociation constant Kd is 0.0809 nM, the koff came to 0.000417 s⁻¹ and the kon is 5.16e+06 M⁻¹ s⁻¹.

Consider B3, for which the Kd turned out to be 0.0607 nM, the koff came to 0.000383 s⁻¹ and the kon worked out at 6.31e+06 M⁻¹ s⁻¹.

For B4, the binding result is on record as “no binding”.

In the case of B5, the equilibrium dissociation constant (Kd) came out at 0.108 nM, the koff was found to be 0.000511 s⁻¹ and the kon was 4.75e+06 M⁻¹ s⁻¹.

As to B6, the equilibrium dissociation constant (Kd) came out at 0.0772 nM, the koff was determined as 0.000427 s⁻¹ and the kon worked out at 5.54e+06 M⁻¹ s⁻¹.

Take B7: the Kd turned out to be 0.212 nM, the koff worked out at 0.000783 s⁻¹ and the kon amounted to 3.7e+06 M⁻¹ s⁻¹.

As to B8, the Kd was determined as 0.0917 nM, the koff was 0.00059 s⁻¹ and the kon turned out to be 6.44e+06 M⁻¹ s⁻¹.

The record behind these values is patent publication US20190015483A1 (CSL BEHRING RECOMBINANT FACILITY, published 2019).
